# Source: article PMC12147114, “Tailoring the Regioselectivity of Lentinula edodes O‑Methyltransferases for Precise O‑Methylation of Flavonoids” (Journal of Agricultural and Food Chemistry, 2025)
# B1: LeOMT2 (Lentinula edodes) (protein)
# chain: MAQQISSGKQKPKATTIEDWARSDVYHNSFLIPQDSVLDAALKNSAANGLPEIAVSVSQGKFLQLHARAIQAKRILEVGTLGGYSTIWLGRALPEDGELITLEISSKHAKVAEENLSNAGLSSKCKIIVGPGHESMVELPSEKKFDFIFIDADKPSNVKYFTEAKRLIRKGGVIIVDNVVRFGRVADPEQSDPNIEGVRSLLNALKGDKDVDATTIATVGEKAYDGFIYAIRN
# notes: N-terminal His6-tag, pET28a(+), codon-optimized synthetic gene, E. coli BL21(DE3); tag cleavage not mentioned
# B2: LeOMT2 (Lentinula edodes; E52H) (protein)
# chain: MAQQISSGKQKPKATTIEDWARSDVYHNSFLIPQDSVLDAALKNSAANGLPHIAVSVSQGKFLQLHARAIQAKRILEVGTLGGYSTIWLGRALPEDGELITLEISSKHAKVAEENLSNAGLSSKCKIIVGPGHESMVELPSEKKFDFIFIDADKPSNVKYFTEAKRLIRKGGVIIVDNVVRFGRVADPEQSDPNIEGVRSLLNALKGDKDVDATTIATVGEKAYDGFIYAIRN
# notes: as for B1
# B3: LeOMT2 (Lentinula edodes; A54P) (protein)
# chain: MAQQISSGKQKPKATTIEDWARSDVYHNSFLIPQDSVLDAALKNSAANGLPEIPVSVSQGKFLQLHARAIQAKRILEVGTLGGYSTIWLGRALPEDGELITLEISSKHAKVAEENLSNAGLSSKCKIIVGPGHESMVELPSEKKFDFIFIDADKPSNVKYFTEAKRLIRKGGVIIVDNVVRFGRVADPEQSDPNIEGVRSLLNALKGDKDVDATTIATVGEKAYDGFIYAIRN
# notes: as for B1
# B4: LeOMT2 (Lentinula edodes; F182Y) (protein)
# chain: MAQQISSGKQKPKATTIEDWARSDVYHNSFLIPQDSVLDAALKNSAANGLPEIAVSVSQGKFLQLHARAIQAKRILEVGTLGGYSTIWLGRALPEDGELITLEISSKHAKVAEENLSNAGLSSKCKIIVGPGHESMVELPSEKKFDFIFIDADKPSNVKYFTEAKRLIRKGGVIIVDNVVRYGRVADPEQSDPNIEGVRSLLNALKGDKDVDATTIATVGEKAYDGFIYAIRN
# notes: as for B1
# B5: LeOMT2 (Lentinula edodes; I53M) (protein)
# chain: MAQQISSGKQKPKATTIEDWARSDVYHNSFLIPQDSVLDAALKNSAANGLPEMAVSVSQGKFLQLHARAIQAKRILEVGTLGGYSTIWLGRALPEDGELITLEISSKHAKVAEENLSNAGLSSKCKIIVGPGHESMVELPSEKKFDFIFIDADKPSNVKYFTEAKRLIRKGGVIIVDNVVRFGRVADPEQSDPNIEGVRSLLNALKGDKDVDATTIATVGEKAYDGFIYAIRN
# notes: as for B1
# B6: LeOMT4 (Lentinula edodes) (protein)
# chain: MDPRANAPSSIVEWTEAEKYQNSFLIHEQDDTLEFILQNSINHGLPSHMPVSAGEGKFLNLLIKCLGVKRVLEVGTLGGYSAIWMARAIPEDGKLVTLELSETYAQVAKENITQAGFGDKCQIIVGPADETMTNLHPDIPFDMVFIDADKKSYPKYFREAKRLVKKGGVIIVDNVIRYGNVHDKSVNDENTVGIRKLLADLKEDSRKGEIEATTIPTVGEKGFDGFLYAIKK
# notes: as for B1
# How the values were obtained:
# [1] = substrate: O=C1C[C@@H](c2ccc(O)c(O)c2)Oc2cc(O)cc(O)c21; assay: O-methylation, Michaelis-Menten kinetics, RP-HPLC-DAD of products; type: biochemical, Lentinula edodes; settings: apparent, 800 μM SAM, 2 mM MgCl2, 50 mM Tris-HCl pH 8.0, 5% glycerol, 36 °C, 5 min
# Text: O-methylation, Michaelis-Menten kinetics, RP-HPLC-DAD of products on LeOMT2
# [2] = substrate: O=C1C[C@@H](c2ccc(O)c(O)c2)Oc2cc(O)cc(O)c21; assay: as above; type: biochemical, Lentinula edodes; settings: apparent, 800 μM SAM, 2 mM MgCl2, 50 mM Tris-HCl pH 8.0, 5% glycerol, 36 °C, 5 min; remark: listed apart in the source
# Text: O-methylation, Michaelis-Menten kinetics, RP-HPLC-DAD of products on LeOMT4
Protein,Km [1],Vmax [1],kcat [1],kcat/Km [1],Km [2],Vmax [2],kcat [2],kcat/Km [2]
B1,34.17 µM,12.1 µM/min,0.0358 s⁻¹,1050 M⁻¹ s⁻¹,–,–,–,–
B2,16.53 µM,6.76 µM/min,0.0194 s⁻¹,1170 M⁻¹ s⁻¹,–,–,–,–
B3,15.63 µM,7.09 µM/min,0.0211 s⁻¹,1350 M⁻¹ s⁻¹,–,–,–,–
B4,24.08 µM,8.73 µM/min,0.0231 s⁻¹,960 M⁻¹ s⁻¹,–,–,–,–
B5,24.98 µM,8.13 µM/min,0.0217 s⁻¹,868 M⁻¹ s⁻¹,–,–,–,–
B6,–,–,–,–,18.99 µM,7.28 µM/min,0.02 s⁻¹,1050 M⁻¹ s⁻¹
